Target: T1, COOH-terminal domain of Numb (aa 298–603), purified (human, UniProt P49757-2 298-603)
T1 sequence (looked up): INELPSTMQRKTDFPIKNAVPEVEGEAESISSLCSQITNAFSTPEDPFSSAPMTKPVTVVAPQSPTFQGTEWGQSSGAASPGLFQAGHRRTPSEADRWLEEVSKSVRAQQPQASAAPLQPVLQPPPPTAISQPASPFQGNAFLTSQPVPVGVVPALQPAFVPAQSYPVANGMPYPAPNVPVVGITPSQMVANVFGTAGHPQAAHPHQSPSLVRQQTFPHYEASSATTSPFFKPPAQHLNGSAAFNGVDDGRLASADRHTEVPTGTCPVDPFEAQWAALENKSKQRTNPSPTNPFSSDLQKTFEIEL
Test: pull-down

binding result: binds
B1: GST–α ear (GST fusion protein containing aa 715–977 of the mouse α adaptin) (domain or fragment, UniProt P17426 715-977, looked up)
chain: PMALLADPAPAADPGPEDIGPPIPEADELLNKFVCKNSGVLFENQLLQIGVKSEFRQNLGRMYLFYGNKTSVQFQNFLPTVVHPGDLQTQLAVQTKRVAAQVDGGAQVQQVLNIECLRDFLTPPLLSVRFRYGGTAQSLTLKLPVTINKFFQPTEMAAQDFFQRWKQLSLPLQEAQKIFKANHPMDAEVTKAKLLGFGSALLDNVDPNPENFVGAGIIQTKALQVGCLLRLEPNAQAQMYRLTLRTSKEPVSRHLCELLAQQF
